B1: CSE031: clustered SOX dimer motif enhancer, SEQ ID NO: 52 (nucleic acid)
DNA: CAGAGGAGAGAGGAGGTCATTTGGGACCATTTACTCATGCGAGAGTCACTGCCCCATGCTAAGATTTCCCCTAAAAATAAAATGATAAGATAATAACTCATAATGCTCTCCCCAAATCAGTACCACACAGACCCCCCTCTTCTGTTTGCTCAGACCCCCGCTCTCCAGCACAAAGTCTTTATTGGTCTCCCTGCAGGGGTGAAAATAAAGGGGGTTTTGTTCTTCTCCTCCCCCTCCCCCCTCGAAGGGCTGAGTGAGTTTATCTGACACTGCAGCAGTCTTTGTAAACTGAGTGTCCCAGGATAAACGCTCCCTTAAGAGTCGCTTGGCCTGGGACAGAGGGACCCTCTCCAGAGGAGAATGGGGAGCTTGTTCCAATGGTCTTTTAATATGGGGGGCGGGGTGTCACCAAGGACAGGCCTCCAGCACACTCTCACAGAAGGGTCTCTGTCCTGAGGCTACAGTGGAGGGAATTCTTAAAGACACAGATGCTGAAAAGGGGGAAGGAATTTTTTTTTCCCCTAAGGGGAGGGGAGGGAGGTTAGGGCGGGAAGGAGAAGGGGGAGTGGCGAGGACTCCTCATTCCCCAGAACAATTCCAGTTACAACAAGGCGTCTCTAT
B2: ID2339: enhancer fragment, SEQ ID NO: 9 (nucleic acid)
DNA: GTCGGCGGAACTGAGTCTCCTTTGTGGAGCCCCTCATTTGCATGATAAACCCCGGGGACAAAGTGTGTTCTTGTTACTTGGACTGTTTCTTGGAAACTGCTGCTACCTGGAGCGAGTGAACACAGGGCAAGTATTCTCGCCCACAGCAACGTGTCATTGA
B3: ID0885: enhancer fragment, SEQ ID NO: 14 (nucleic acid)
DNA: CAGCAAAGGCTGCACGCAATGGGGGAGGGGGAAGGAGGGAAGGATATTTCCTCCTTTTTAGATCAGTTTCTTTTCTGAGCACAAGTGCTTTCTGTGTCATCCTAACAATGTAAGAGCCCACTAAGTTTAGGACGCATAATACCGGCCTTTGTTCTACTCC
B4: ID3548: enhancer fragment, SEQ ID NO: 15 (nucleic acid)
DNA: TCCAAACACTCCCCTGCAACAGATGTACACACAGAGCCCATTGTTTTCTCTAGAAATGTAAACTGCACGTCACAGTTACTCCATACACACCACAAACAGACTCCCTTTGTTCTCAGGATATGTGTTGACACAAGAATATGTCATCCTCTCAGCTCCAGAC
B5: ID1888: enhancer fragment, SEQ ID NO: 23 (nucleic acid)
DNA: GACCTTGCCTCTTTCTGGCCTGTGGCCTTTCTCCTCCCCCAGCTGCTGTCTGGCCGCCCCACCCCCAAGTCTCTGCCACAACCAAAGCTCCTTTGTTGCCTCCCCCTGCCCCGGGCCTCTCCACCTGCTGCTAGCTCAATCCCCTCTTTGTGTGGTTGGT
B6: ID3836: enhancer fragment, SEQ ID NO: 20 (nucleic acid)
DNA: TACCCTTCCAGGGGAGCAGTTTCCTGGCTGTGTCGTCAGATACTGTGGTTTACGCTGTTCCGGAGTCTGGAGGTCTGTGTGCCTTTGATCTCTTTCCCAACTAATTTGCACAGCTGCTGTGGAGGCCCTCATGAATGACCTCTTTCTTTCCTTTCT
B7: ID3146: enhancer fragment, SEQ ID NO: 16 (nucleic acid)
DNA: TGAAAGAGATGGGTGTGTGGGAGTGGGGGAAGCTGAGCTCCAGGCAGACAGCACAGAGCCGCCTTGTCCAACCCAGCCAGGTGCCATGGCAACCAACAAAGGCCCCATTGTCCCGTGTCTGCTGGGCCTTCCTGAGGCTCTGGGGTCAGAGTCCCGGTT
B8: ID1737: enhancer fragment, SEQ ID NO: 10 (nucleic acid)
DNA: CAACGTTTTTGGCAGATGCAGCTCTTTCTGAACAGTAAGTCATTGTTGAGTGACATGAATAGGACGAGAGCTACAGAAAATGAAGGTTTCAAAAGATTGTCTAAAACAAAAGTCCTTTCAGTCCCGTATTCAGAGTT
B9: ID0663: enhancer fragment, SEQ ID NO: 11 (nucleic acid)
DNA: ATAAATTCCGATTAGCCAAGGAAGCTCTGAGTCTAAATACCAGCAAAGCTCAGCCCCTGCAAGTGGGGACGAATTATTTGAAAGGTCATCCTAGAGACACTGAACAAAGGGCCTCTAGCAGCT
modifications: listed as DNA, chemistry not given here
B10: ID3547: enhancer fragment, SEQ ID NO: 13 (nucleic acid)
DNA: CGTTCCCCCTTAACAAAAGCCACCTCCTCCCTCCTGAAAGGCACCATTGGTCACCAAAACAAGTCCCCTTTGTCCTCCACCGCAGCTGGAGCCTGGGCCTTCCATCTCCTGGGGGCCAATAAAACCCCAGATCAGCCAATCCTCCCTCCCTGGCTCTGTCA
B11: ID4310: enhancer fragment, SEQ ID NO: 17 (nucleic acid)
DNA: TTGTCCTGCCTTTGAGAACACTGGAAGGGCACTGAAGGCTGACCAGCATGCACCTCACCCCACCTCCTCTCTGTCTCATCCTCAGCCATCTAAGCGGGAGACTCATCAGGCTTAAATTCTCATTCTTATCCAAGATTCTTCTGCTTCAAATGAG
B12: ID3765: enhancer fragment, SEQ ID NO: 21 (nucleic acid)
DNA: B11 DNA
B13: ID4428: enhancer fragment, SEQ ID NO: 18 (nucleic acid)
DNA: TCTAAATGGAGATCCTCCCATAAAGGGAGTTCTGTTTGGGCTTCCCTTGGAAGTCCATTGAAAGCGTTTCACATTTCAATGCTTCTTTACATTCTCCTCTAGAATGAATCTGGAAGGGCCATTTCATTCCAGCCCTATCAGATTTACTACTTCCTCCTGT
B14: CSE074: clustered SOX dimer motif enhancer, SEQ ID NO: 51 (nucleic acid)
DNA: ATACATTTTAGCACCAAACACAATTTAATAACAGGGCACAGAGGCCGCAAAGCCTCCTGATTCTGTTCCATTACTAATTTATCAGGGGCTGAAAGCAACCAAACTTAGGATCCCAGGCAGACAATGGAGCCTTTGAGGGGCAAGGGAAGCATCATTTAAAAGGAAAGCATTACCATTCTAAAATAATGGCAAAGCACATGAACTGAGTGCTCTGAAAGAGAGCACTACAAAAAAGGTATTCTCAGCTTAAATGCCCCAAACACAAAAGCTTTTAGTTGGGACTTAGACGGGAAAAAGAAAATAGCTCCCAATAAATTGGTTTTACCAGTATCCTTTTGTGTGTGCTGGTGCCAAGGGGGCGAGGGTACAGGCAAAGCGTGATTTTCCAAAACCTAGCTGAATTATGTTTCTTCTTTAGAACAAAACCCAACATTTTGCTAATGAGGATAAAGACAGTAAAACTGATATTCCTGTGCTATTACTAACTTGG
B15: ID2706: enhancer fragment, SEQ ID NO: 12 (nucleic acid)
DNA: CCAATGCCAAAGCAGTTTACATTTTACAGATGCCATGGCAACCGTCAGGAAGTTACCCTGTATGGTCTAAGAGGGGGAGGAACCCTCAGTTCCGGGAATTGCCCGCCCCTTTCCCGGAAACTCATGAATAATCCACCC
B16: ID0785: enhancer fragment, SEQ ID NO: 19 (nucleic acid)
DNA: AAGAATGAACTGGGCCCAGCTGGGCATTTGCATCAAAGTGCCTCACCAGAGTTCCCAGCTGCTCTGGCAGAGTGCCCAGGCTTGCCCCAGAGCCCAAACAGAATGCTCTTTGAGATGCCTCTGGTTTTCA
modifications: listed as DNA, chemistry not given here
B17: ID1176: enhancer fragment, SEQ ID NO: 22 (nucleic acid)
DNA: ACAAACTAAACACAGACATTTTCTCAATTAGTCATTTTCAGGTTTATTGCCTAAGATGCTAATTGAAATTCAGGGCAGGCAAAAATACATCATTGGCCTTTGTATATCTTTGAAAGGCCTTCTGATGGGACCTTGCTCCGTATAAAGGCTTCTCTTCTCT
B18: ID0291: enhancer fragment, SEQ ID NO: 24 (nucleic acid)
DNA: CATTCTTTGCAGATAGGAAACAGTTTGCTATCTGAGAGACTGGCCAAAAACCTTACTTTCAAGTAAAATAGGGCTCTATTCATAAGCTCCTACATGTACACAAGTTACTCTTTATACTCCTTTCAGACAATGATAAGAATAGAAACTATTTAATTCAGGA
B19: CSE006: clustered SOX dimer motif enhancer, SEQ ID NO: 53 (nucleic acid)
DNA: AGGAAGAAGCATGCTGGGTCATTTTTGCCTTGTTTCTAGCTGCATGAATTGAAAAGCCAGGCCCAGGTTCAATGCATCATTCTTGAAGCAGTGAACAAAATCCCTCTTTGTTCCCCAGTGAAACTTATCTCTGAAGAGCTGCACTACTTCCTGTGAGATATAGCCCTGCAGATGTGTCGTGGGAGACCCGCCCGGCTGCACTGCCTTCCATAAAAGTGCAAGAATGGGCACTTTGTACTGCTGGACTGAAAATGACACTCACTCTTCTGATCCCCACTGGGGTTACCAAGTGGGCAAAACTTCCTGCTTAGAGGAGGGGTCATAGACAGCAGGGGGAGTGTGTGATTTTGTTTTGTTCCTTTGTGAATTTGTTTAGCTATTTATAGAGCTAAAGGAGAAAGCAAACGGGCACAATGTAGCACAGTGTTTTTCAAAGTGTATTCCATGGAACCCTTTCGTGGGTTGCAGACCCCAGGGGTGGAGGCAGAGGATGGGGTGGTGACAGCAGCAGGTGCTGTCCAGGGCCTTCTGTCT

tested on: GSC7 cells; test: Nano-Glo Dual-Luciferase Reporter (Nanoglo DLR) assay of enhancer activity, fold change to mCMV; format: cell-based, human; conditions: expression fold change of the individual enhancer compared to mCMV
Summary of the method: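 160 bp enhancer fragments in NanoLuc reporter plasmids were co-transfected 1:10 with PGK-firefly luciferase into GSC7 cells using Lipofectamine LTX/Plus and read two days later. NanoLuc signal was normalised to firefly, then expressed as fold change to the empty mCMV vector.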

Molecule	Fold change (Median) [fold]
B1	249.3
B2	79.6
B3	42.6
B4	40.0
B5	31.1
B6	33.4
B7	37.2
B8	77.1
B9	59.1
B10	53.2
B11	36.3
B12	31.7
B13	36.2
B14	250.6
B15	57.2
B16	34.3
B17	31.3
B18	29.0
B19	524.3

From patent publication US20260241035A1, “FUNCTIONAL NUCLEIC ACID MOLECULE AND METHOD” (THE UNIVERSITY COURT OF THE UNIVERSITY OF EDINBURGH, priority 2022, published 2026)
